Laboratory results as given in paper PMC3057708 (Molecular Biology of the Cell, 2011).

B1: purified full-length Sro7, soluble (natural protein)
chain: MFGSKRLKNVKEAFKSLKGQNSETPIENSKASFKSKNSKTSTISKDAKSSSSLKIPISSNNKNKIFSLAETNKYGMSSKPIAAAFDFTQNLLAIATVTGEVHIYGQQQVEVVIKLEDRSAIKEMRFVKGIYLVVINAKDTVYVLSLYSQKVLTTVFVPGKITSIDTDASLDWMLIGLQNGSMIVYDIDRDQLSSFKLDNLQKSSFFPAARLSPIVSIQWNPRDIGTVLISYEYVTLTYSLVENEIKQSFIYELPPFAPGGDFSEKTNEKRTPKVIQSLYHPNSLHIITIHEDNSLVFWDANSGHMIMARTVFETEINVPQPDYIRDSSTNAAKISKVYWMCENNPEYTSLLISHKSISRGDNQSLTMIDLGYTPRYSITSYEGMKNYYANPKQMKIFPLPTNVPIVNILPIPRQSPYFAGCHNPGLILLILGNGEIETMLYPSGIFTDKASLFPQNLSWLRPLATTSMAASVPNKLWLGALSAAQNKDYLLKGGVRTKRQKLPAEYGTAFITGHSNGSVRIYDASHGDIQDNASFEVNLSRTLNKAKELAVDKISFAAETLELAVSIETGDVVLFKYEVNQFYSVENRPESGDLEMNFRRFSLNNTNGVLVDVRDRAPTGVRQGFMPSTAVHANKGKTSAINNSNIGFVGIAYAAGSLMLIDRRGPAIIYMENIREISGAQSACVTCIEFVIMEYGDDGYSSILMVCGTDMGEVITYKILPASGGKFDVQLMDITNVTSKGPIHKIDAFSKETKSSCLATIPKMQNLSKGLCIPGIVLITGFDDIRLITLGKSKSTHKGFKYPLAATGLSYISTVEKNNDRKNLTVIITLEINGHLRVFTIPDFKEQMSEHIPFPIAAKYITESSVLRNGDIAIRVSEFQASLFSTVKEQDTLAPVSDTLYINGIRIPYRPQVNSLQWARGTVYCTPAQLNELLGGVNRPASKYKESIIAEGSFSERSSDDNNANHPEHQYTKPTRKGRNSSYGVLRNVSRAVETRWDAVEDRFNDYATAMGETMNEAVEQTGKDVMKGALGF
B2: GST-Sec4 (natural protein)
chain: MSGLRTVSASSGNGKSYDSIMKILLIGDSGVGKSCLLVRFVEDKFNPSFITTIGIDFKIKTVDINGKKVKLQLWDTAGQERFRTITTAYYRGAMGIILVYDVTDERTFTNIKQWFKTVNEHANDEAQLLLVGNKSDMETRVVTADQGEALAKELGIPFIESSAKNDDNVNEIFFTLAKLIQEKIDSNKLVGVGNGKEGNISINSGSGNSSKSNCC

Assays:
[1] = target: B2; assay: pull-down
[2] = target: B1; assay: pull-down

Binder	fold binding to GTPγS-bound Sec4 over GDP-bound Sec4 [1]	binding result [2]
B1	> 5 fold	
B2		binds
